The target of the test is T1, Human IL10R1 (R&D, 9100-R1-050) (human, UniProt Q13651 22-235).
T1 construct: Bought protein coated on the ELISA plate; also called hIL10R1; human IL10R1 proteins
T1 sequence (looked up): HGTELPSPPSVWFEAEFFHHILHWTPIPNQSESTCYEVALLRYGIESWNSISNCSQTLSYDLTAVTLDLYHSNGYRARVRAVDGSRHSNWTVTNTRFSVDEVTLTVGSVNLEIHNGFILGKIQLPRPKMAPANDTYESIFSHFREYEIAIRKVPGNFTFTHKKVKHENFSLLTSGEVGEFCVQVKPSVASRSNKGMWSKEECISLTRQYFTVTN
Nature of the test: ELISA, plate coated with human IL10R1, detection with goat anti-hIgG-HRP. A general note: ELISA stands for enzyme-linked immunosorbent assay.

Drawing on patent US20200277350A1 (DINGFU BIOTARGET, published 2020), this text covers EC50 for 1 molecule.

Method: Human IL10R1 (R&D, 9100-R1-050) was diluted to 5 μg/mL with coating buffer (50 mM Na₂CO₃, NaHCO₃ pH 9.6), 100 μL/well, overnight at 4° C. After washing, the plates were sealed with 3% BSA-PBS for 1 h at 37° C. Then, all samples were respectively diluted from 10000 ng/mL and were diluted 3-fold to a total of 11 concentrations, with the diluent (1% BSA-PBS) as a control, incubated at 37° C. for 2 h. After washing, Goat anti-hIgG-HRP (Sigma, A0170) was added and incubated at 37° C. for 1 h. The soluble one-component TMB substrate developing solution was added, and the developing was performed in dark at room temperature for 5-10 min. 2 N H₂SO₄ 50 μL/well was added to terminate the color development reaction.

B1: Reverse-(IL10)2-Fc9 (Fc fusion)
chain 1: EPKSSDKTHTCPPCPAPELLGGPSVFLFPPKPKDTLMISRTPEVTCVVVDVSHEDPEVKFNWYVDGVEVHNAKTKPREEQYNSTYRVVSVLTVLHQDWLNGKEYKCKVSNKALPAPIEKTISKAKGQPREPQVYTLPPSRDELTKNQVSLSCGVKGFYPSDIAVEWESNGQPENNYKTTPPVLDSDGSFKLASKLTVDKSRWQQGNVFSCSVMHEALHNHYTQKSLSLSPGKGGGGSGGGGSGGGGSSPGQGTQSENSCTHFPGNLPNMLRDLRDAFSRVKTFFQMKDQLDNLLLKESLLEDFKGYLGCQALSEMIQFYLEEVMPQAENQDPDIKAHVNSLGENLKTLRLRLRRCHRFLPCENKSKAVEQVKNAFNKLQEKGIYKAMSEFDIFINYIEAYMTMKIRNGGGGSGGGGSGGGGSSPGQGTQSENSCTHFPGNLPNMLRDLRDAFSRVKTFFQMKDQLDNLLLKESLLEDFKGYLGCQALSEMIQFYLEEVMPQAENQDPDIKAHVNSLGENLKTLRLRLRRCHRFLPCENKSKAVEQVKNAFNKLQEKGIYKAMSEFDIFINYIEAYMTMKIRN
chain 2: DKTHTCPPCPAPELLGGPSVFLFPPKPKDTLMISRTPEVTCVVVDVSHENPEVKFNWYVDGVEVHNAKTKPREEQYNSTYRVVSVLTVLHQDWLNGKEYKCKVSNKALPAPIEKTISKAKGQPREPQVYTLPPSRDELTKNQVSLWCLVKGFYPSDIAVEWESNGQPENNYKTTPPVLDSDGSFFLYSALTVDKSRWQQGNVFSCSVMHEALHNHYTQKSLSLSPGK
notes: also called proteinaceous heterodimer of Group C
B1: the concentration giving a half-maximal response (EC50) (usually the concentration that produces a half-maximal response) turned out to be 0.0123 µg/mL.
